Tested on: Escherichia coli TOP10
Test: shrunken log2 fold change of peptide-encoding DNA abundance (4.5 h post-induction vs induction); higher = less antimicrobial activity (less host growth inhibition)
Settings: time post-induction: 4.5 h; library: site-saturation at positions 5, 18, 19, 20
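Note: peptides expressed intracellularly from a pBAD plasmid library in pooled LB shake-flask culture, induced with 0.3% L-arabinose, DNA abundance read by NGS, three biological replicates, DESeq2 with apeglm shrinkage.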

Row | Sequence | shrunken log2 fold change
1 | RRIRVRPPRLPRPRPRPFYRPRP | -0.576
2 | RRIRPRPPRLPRPRPRPKWIPRP | -0.465
3 | RRIRWRPPRLPRPRPRPMLCPRP | 0.216
4 | RRIRHRPPRLPRPRPRPQAMPRP | -0.00822
5 | RRIRSRPPRLPRPRPRPVLIPRP | -0.000674
6 | RRIRIRPPRLPRPRPRPGRLPRP | 0.12
7 | RRIRIRPPRLPRPRPRPNWDPRP | -0.0401
8 | RRIRRRPPRLPRPRPRPLWSPRP | 0.136
9 | RRIRNRPPRLPRPRPRPLAHPRP | 0.212
10 | RRIRTRPPRLPRPRPRPEQVPRP | -0.00471
11 | RRIRLRPPRLPRPRPRPFSCPRP | 0.0222
12 | RRIRGRPPRLPRPRPRPQNIPRP | -0.603
13 | RRIRGRPPRLPRPRPRPSMFPRP | 0.554
14 | RRIRMRPPRLPRPRPRPHNGPRP | -0.337
15 | RRIRIRPPRLPRPRPRPCYKPRP | -0.049
16 | RRIRQRPPRLPRPRPRPMSQPRP | -0.0185
17 | RRIRDRPPRLPRPRPRPWPYPRP | -0.0943
18 | RRIRKRPPRLPRPRPRPKFMPRP | -0.0124
19 | RRIRVRPPRLPRPRPRPQPAPRP | 0.0494
20 | RRIRCRPPRLPRPRPRPVRNPRP | 0.0515
21 | RRIRMRPPRLPRPRPRPGREPRP | 1.02

Row | Sequence | shrunken log2 fold change
22 | RRIRFRPPRLPRPRPRPRCAPRP | 0.178
23 | RRIRIRPPRLPRPRPRPWPVPRP | -0.0355
24 | RRIRYRPPRLPRPRPRPKVTPRP | -0.114
25 | RRIRKRPPRLPRPRPRPNLTPRP | -0.112
26 | RRIRPRPPRLPRPRPRPWQPPRP | -0.0506
27 | RRIRSRPPRLPRPRPRPSWYPRP | -0.745
28 | RRIRQRPPRLPRPRPRPCYDPRP | -0.357
29 | RRIRMRPPRLPRPRPRPLMMPRP | 0.452
30 | RRIRARPPRLPRPRPRPRYFPRP | -0.0939
31 | RRIRCRPPRLPRPRPRPSKNPRP | -0.382
32 | RRIRMRPPRLPRPRPRPQMAPRP | 0.349
33 | RRIRSRPPRLPRPRPRPGAAPRP | 0.603
34 | RRIRKRPPRLPRPRPRPYHFPRP | -0.031
35 | RRIRWRPPRLPRPRPRPKVDPRP | 0.0401
36 | RRIRSRPPRLPRPRPRPMHTPRP | -0.139
37 | RRIRVRPPRLPRPRPRPTFPPRP | 0.0553
38 | RRIRVRPPRLPRPRPRPSPTPRP | 0.0219
39 | RRIRSRPPRLPRPRPRPYLHPRP | -0.757
40 | RRIRKRPPRLPRPRPRPENWPRP | 0.928
41 | RRIRERPPRLPRPRPRPHSHPRP | -0.269
42 | RRIRVRPPRLPRPRPRPEKWPRP | 0.0257

Row | Sequence | shrunken log2 fold change
43 | RRIRSRPPRLPRPRPRPRQAPRP | -0.0163
44 | RRIRFRPPRLPRPRPRPEYNPRP | -0.113
45 | RRIRYRPPRLPRPRPRPLQMPRP | -0.209
46 | RRIRHRPPRLPRPRPRPSGNPRP | -0.199
47 | RRIRRRPPRLPRPRPRPNPSPRP | 0.215
48 | RRIRDRPPRLPRPRPRPLRDPRP | 0.537
49 | RRIRPRPPRLPRPRPRPDMYPRP | -0.192
50 | RRIRTRPPRLPRPRPRPDMWPRP | -0.126
51 | RRIRLRPPRLPRPRPRPAMYPRP | -0.139
52 | RRIRQRPPRLPRPRPRPAVVPRP | 0.242
53 | RRIRNRPPRLPRPRPRPSNNPRP | -0.96
54 | RRIRIRPPRLPRPRPRPRWTPRP | 0.0809
55 | RRIRTRPPRLPRPRPRPNGDPRP | -0.0598
56 | RRIRIRPPRLPRPRPRPPQCPRP | -0.244
57 | RRIRFRPPRLPRPRPRPLTWPRP | -0.163
58 | RRIRLRPPRLPRPRPRPWCPPRP | 0.0721
59 | RRIRHRPPRLPRPRPRPMYDPRP | 0.0149
60 | RRIRLRPPRLPRPRPRPVSGPRP | 0.525
61 | RRIRRRPPRLPRPRPRPQHNPRP | 0.0256
62 | RRIRARPPRLPRPRPRPMMPPRP | 0.307
